Assay results published in the supplement of paper PMC7125110.
± gives the standard error. Variants at the floor of the assay were thinned out.

B1: glmS ribozyme (parent)
chain: AUAAAAGCGCCAGAACUACAGAAAUGUAGUUGACGAGGAGGAGGUUUAUCGAAUUUUCGGCGGAUGCCUCCAAA

Columns and labels:
Conditions in all cases: with glucosamine-6-phosphate
glucosamine-6-phosphate [1] = variants of: B1; experiment: self-cleavage kobs at 160 uM GlcN6P; higher = faster cleavage; RNA array
Outline: (§1)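 E. coli RNA polymerase transcribed barcoded ribozyme variants in situ on sequenced MiSeq chips, which were tracked via a hybridised Cy3 probe at 37 °C. Tiles were imaged over ~14 h after glucosamine-6-phosphate (40 μM to 10 mM) in HEPES/KCl/Mg(OAc)2 buffer was flowed in. Normalised per-tile medians were fit to one- or two-exponential decays for kobs, and kcat and KM came from weighted Michaelis–Menten fits.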

glucosamine-6-phosphate [2] = variants of: B1; experiment: self-cleavage kobs at 640 uM GlcN6P; higher = faster cleavage; RNA array
Outline: as §1

glucosamine-6-phosphate [3] = variants of: B1; experiment: self-cleavage kobs at 2500 uM GlcN6P; higher = faster cleavage; RNA array
Outline: as §1

glucosamine-6-phosphate [4] = variants of: B1; experiment: self-cleavage kobs at 10000 uM GlcN6P; higher = faster cleavage; RNA array
Outline: as §1

| Variant | self-cleavage kobs at 160 uM GlcN6P (glucosamine-6-phosphate [1]) [s⁻¹] | self-cleavage kobs at 640 uM GlcN6P (glucosamine-6-phosphate [2]) [s⁻¹] | self-cleavage kobs at 2500 uM GlcN6P (glucosamine-6-phosphate [3]) [s⁻¹] | self-cleavage kobs at 10000 uM GlcN6P (glucosamine-6-phosphate [4]) [s⁻¹] |
| --- | --- | --- | --- | --- |
| AUAAAAGCGCCAGAACUACAGAAAUGUAGUUAACGAGGAGGAGCUUUAUCGAAUUUUCGGCGGAUACAUCCAAA [G32A G44C G66A C68A] | < 1e-05 | < 1e-05 | < 1e-05 | – |
| AUAAAAGCGCCAGAACUACAGAAAUGUAGUUCUCGAGGAGGAGGUUUAUCGGAUUUUCGGCGGAUGCCUCCAAA [G32C A33U A52G] | < 1e-05 | < 1e-05 | < 1e-05 | – |
| AUAAAAGCGCCAGAACUACAGAAAUGUAGUUAACGAGGAGGUGGUUUAUCGAAUUUUCGGCGGAUGCCUCCAAA [G32A A42U] | < 1e-05 | < 1e-05 | – | – |
| AUAAAAGCGCCAGAACUACAGAAAUGUAGUUAACGAGGAGGAGGUUUAUCGAAUUGUCGGCGGAUGCCUCCAAA [G32A U56G] | 9.78e-05 ± 3.6e-05 | 0.000151 ± 2e-05 | 0.000254 ± 3.2e-05 | 0.000906 ± 8.9e-05 |
| AUAAAAGCGCCAGAACUACAGAAAUGUAGUUCACGAGAAGGAGGUUUAUGGAAUUUUCGGCGGAUGCCUCCAAA [G32C G38A C50G] | 0.000156 ± 5.3e-05 | 0.000119 ± 3e-05 | 8.89e-05 ± 2.7e-05 | – |
| AUAAAAGCGCCAGAACUACAGAAAUGUAGUUCACGAGGAGGAGGUUAAUCGAAUUUUCGGCCGGUGCCUCCAAA [G32C U47A G62C A64G] | < 1e-05 | < 1e-05 | < 1e-05 | – |
| AUAAAAGCGCCAGAACUACAGAAAUGUAGUUAACGAGGAGGAAGUUUAUCGAAUUUUCGGCGCAUGCCUCCAAA [G32A G43A G63C] | < 1e-05 | – | < 1e-05 | – |
| AUAAAAGCGCCAGAACUACAGAAAUGUAGUGGACGAGGAGGAGGUUUAUCCAAUUUCCGGCGGAUGCCUCCAAA [U31G G51C U57C] | < 1e-05 | < 1e-05 | < 1e-05 | – |
| AUAAAAGCGCCAGAACUACAGAAAUGUAGUGGACGAGGAGGAGGUUUACCGAAUUUUCGGCGGAUGUCUCCAAA [U31G U49C C67U] | < 1e-05 | – | – | – |
| AUAAAAGCGCCAGAACUACAGAAAUGUAGUGGACGAGGAGGAGGCUUAUCGAAUUUUCGGCGGAUGGCUCCAAA [U31G U45C C67G] | 0.000177 ± 7.3e-05 | – | 0.00223 ± 0.0006 | – |
| AUAAAAGCGCCAGAACUACAGAAAUGUAGUUCACAAGGAGGAGGUUUAUCGAAUUUUCGGCGGAUGCCUCCAAA [G32C G35A] | < 1e-05 | < 1e-05 | < 1e-05 | < 1e-05 |
| AUAAAAGCGCCAGAACUACAGAAAUGUAGUGGACGAGGAGGAGUUUUAUCUAAUUUUCGGCGGAUGCCUCCAAA [U31G G44U G51U] | < 1e-05 | – | – | – |
| AUAAAAGCGCCAGAACUACAGAAAUGUAGUGGACCAGGAGGAGGUAUAUCGAAUUUUCGGCGGAUGCCUGCAAA [U31G G35C U46A C70G] | < 1e-05 | < 1e-05 | < 1e-05 | – |
| AUAAAAGCGCCAGAACUACAGAAAUGUAGUUCACGAGGAGGAGGUUUGUCUAAUUUUCGGCGGAUGCCUCCAAA [G32C A48G G51U] | < 1e-05 | < 1e-05 | < 1e-05 | – |
| AUAAAAGCGCCAGAACUACAGAAAUGUAGUUAACGAGGAGGAGGUUUACCGAAUUUUCGGAGGAUGCCUCCAAA [G32A U49C C61A] | < 1e-05 | – | – | – |
